Experimental data from patent US20230374088A1 (GENERAL HOSPITAL, published 2023).
Values belong to the binder of their own block, whether it stands above or below them.

Key:
GST-Kif7-CC (460-600aa) = target: T1, GST-Kif7-CC (460-600aa) (human, UniProt Q2M1P5 460-600); experiment: BLI association step, GST-Kif7-CC on the sensor, soluble truncation at 125 nM [panel C]
T1 construct: held on the BLI sensor through the GST tag; also called Kif7 coiled-coil domain; coiled-coil dimerization domain fragment of Kif7; not shown: N-terminal GST tag (HRV protease cleavable, modified pGEX vector)
T1 sequence: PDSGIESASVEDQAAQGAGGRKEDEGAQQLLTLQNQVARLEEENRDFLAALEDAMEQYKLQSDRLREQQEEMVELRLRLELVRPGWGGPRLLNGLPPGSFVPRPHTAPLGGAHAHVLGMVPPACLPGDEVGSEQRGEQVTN
Method: Equilibrium dissociation constants Kd (shown in parenthesis) were determined by fitting complete binding curves to Hill equation (See FIG. 10C). See also FIGS. 10A, 10B & 10C. Data is representative trace of a minimum of three repeats.
BLI experiments were performed in an Octet Red 96 instrument (ForteBio). To quantify Kif7-Gli2 binding, Experiments were performed in an assay buffer containing 40 mM TRIS pH7.3, 40 mM KCl, 40 μM ATP 1 mM MgCl₂, 0.12% tween and 0.5 mM TCEP. In the simplest assay, dimeric GST-Kif7-CC at a concentration of 120 nM is immobilized on an anti-GST biosensor chip. Unbound Kif7 is washed away with buffer, and the chips are then dipped into buffer with a range of Gli2-ZF concentrations from 0-1 μM to allow for association of the two proteins. After 300 seconds, they are then moved back into a well with just buffer to allow dissociation for 400 seconds. The equilibrium response of each sensor from three independent repeats at each Gli2 concentration were normalized and plotted against Gli2 concentration and fitted with a Hill function to obtain a Kₜ. […] The assays were also performed with HIS-tagged Kif7-DM and the Kif7-Kif27 chimeric proteins, requiring the use of an anti-penta-HIS biosensor chip, and referencing sensors to account for non-specific binding of Gli2 to the HIS sensor. A flipped assay, using HIS-tagged Gli2 on the sensor and a range of Kif7 concentrations in buffer, was also conducted.

[1] = target: T2, GMPCPP-stabilized microtubules (porcine, UniProt P02554 1-445); experiment: TIRF microscopy, GFP intensity on microtubules, no Gli2-ZF
T2 construct: Polymer of tubulin heterodimers; in TIRF partly labeled with X-rhodamine/HiLyte 647 and biotin; also called MT; GMPCPP-microtubule lattice

Gli2-ZF-SNAP [2] = target: T3, Gli2-ZF-SNAP (human, UniProt P10070 418-604, Alexa 647 dye on the SNAP tag in the TIRF assays); experiment: TIRF microscopy; 100 nM Gli2-ZF-SNAP-Alexa647 with 100 nM kinesin on microtubules
T3 construct: Labeled with Alexa 647 for TIRF microscopy; used unlabeled (as far as told) for cryo-EM; also called Gli2-ZF-SNAP-Alexa 647; Gli2-ZF-Alexa 647; not shown: C-terminal SNAP tag
T3 sequence (looked up): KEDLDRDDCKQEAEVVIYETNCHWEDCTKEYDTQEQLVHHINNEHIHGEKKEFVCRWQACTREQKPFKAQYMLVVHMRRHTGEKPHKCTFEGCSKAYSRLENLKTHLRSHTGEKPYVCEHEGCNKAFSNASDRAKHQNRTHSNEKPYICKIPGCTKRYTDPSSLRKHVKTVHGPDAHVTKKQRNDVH
Excerpt: (§1) Briefly, fluorescently labeled (Rhodamine/HiLyte-647) and biotinylated microtubule seeds, polymerized with the non-hydrolyzable GTP analog GMPCPP, were immobilized on a glass coverslip through neutravidin-biotin linkages (FIG. 4A). GMPCPP was chosen as it mimics the GTP-form of tubulin present at microtubule ends (Jiang et al., Developmental cell, 49, 711-730. e8 2019). […] A Gli2 control was used to measure non-specific binding of Gli2-ZF to microtubules. Single molecule photobleaching of purified Kif7-DM confirmed that it is a dimer (FIGS. 11A-D).
To address which of the two Gli-interaction sites of Kif7 plays a role in modulating Kif7 microtubule binding, we generated two chimeric proteins where we swapped either the motor and neck-linker (M) or the coiled-coil (CC) domains of Kif7 and Kif27 (Kif7M-Kif27CC and Kif27M-Kif7CC) (FIG. 5E). […] The binding affinity for each of the two Gli interaction sites on Kif7-DM could be determined using BLI (FIG. 12H). We compared the two chimeras to Kif7-DM in TIRF microscopy-based microtubule binding assay. […] Next, we compared how the microtubule binding of the chimeras were regulated by Gli with respect to Kif7-DM.

GST-Kif7-CC-GFP = target: T4, GST-Kif7-CC-GFP (human, UniProt Q2M1P5 460-600); experiment: SDS-PAGE and in-gel GFP fluorescence intensity of the size exclusion fraction holding the Kif7-CC-GFP:Gli2-ZF-GFP complex; confirmed by quantitative anti-GFP western blot
T4 construct: also called GST-tagged Kif7-CC-GFP; not shown: N-terminal GST tag; GFP tag, C-terminal by the name
T4 sequence: T1 sequence
Method: To determine the stoichiometry of the complex (whether one Kif7-CC dimer bind one or two molecules of monomeric Gli2-ZF), we used fluorescence intensity analyses. […] The complex was analyzed by two methods. […] Second, quantitative western blot with fluorescently labeled anti-GFP antibody and densitometric analysis independently confirmed the stoichiometry of the complex (FIG. 8F).
The Kif7-CC and Kif7-DM proteins were not amenable to dynamic light scattering analysis and so in order to determine the stoichiometry of the Kif7-Gli2 complexes, we purified GFP-tagged constructs of Kif7-DM, Kif7-CC, and Gli2-ZF. […] After incubation, 200 μL of this mix was injected into a Superdex 200 10/300 GL column. Fractions that contained complexed protein were determined by elution volume shift in the gel filtration chromatogram. Complex containing fractions were boiled and run in SDS-PAGE and quantified in two ways: (1) Scan of an unstained SDS-PAGE gel at 488 nm, and (2) Scan of a Western blot using a directly labeled […] anti-GFP antibody (Santa Cruz). Both methods were quantified using an Amersham™ Typhoon Scanner and ImageJ for intensity analysis.

Gli2-ZF-SNAP [3] = target: T3, Gli2-ZF-SNAP; experiment: TIRF microscopy; 100 nM Kif7-DM-GFP and 100 nM Alexa-647 labeled Gli2-ZF-SNAP on GMPCPP microtubules
Method: Rhodamine/HiLyte 647 labeled GMPCPP-stabilized microtubules (grey) were immobilized on a PEG-treated glass coverslip (yellow) via neutravidin-biotin linkages (blue & brown respectively). Kif7-DM-GFP (green), Gli2-ZF-SNAP-Alexa 647 (pink) and 1 mM ATP were subsequently added to examine binding of both proteins on microtubules. All proteins for TIRF microscopy assay were purified to >95% purity (FIGS. 11A & 11B). See also FIGS. 11C-11D.
as §1, with “To examine whether the Kif7-Gli interaction described above is sufficient for recruiting Gli to microtubules, we reconstituted Gli and Kif7 on microtubules and examined their activity using an in vitro TIRF microscopy assay. Briefly,” for “Briefly,”

[4] = target: T5, Gli2-ZF (418-604aa; zinc finger domain of Gli2) (human, UniProt P10070 418-604); experiment: BLI; GST-Kif7-SCC on sensor, Gli2-ZF as analyte, Hill fit
T5 construct: Expressed with an HRV-cleavable N-terminal 6xHis tag, cleaved 'if needed'; also called Gli-ZF
T5 sequence (looked up): T3 sequence (looked up)

T2 sequence (P02554 whole entry): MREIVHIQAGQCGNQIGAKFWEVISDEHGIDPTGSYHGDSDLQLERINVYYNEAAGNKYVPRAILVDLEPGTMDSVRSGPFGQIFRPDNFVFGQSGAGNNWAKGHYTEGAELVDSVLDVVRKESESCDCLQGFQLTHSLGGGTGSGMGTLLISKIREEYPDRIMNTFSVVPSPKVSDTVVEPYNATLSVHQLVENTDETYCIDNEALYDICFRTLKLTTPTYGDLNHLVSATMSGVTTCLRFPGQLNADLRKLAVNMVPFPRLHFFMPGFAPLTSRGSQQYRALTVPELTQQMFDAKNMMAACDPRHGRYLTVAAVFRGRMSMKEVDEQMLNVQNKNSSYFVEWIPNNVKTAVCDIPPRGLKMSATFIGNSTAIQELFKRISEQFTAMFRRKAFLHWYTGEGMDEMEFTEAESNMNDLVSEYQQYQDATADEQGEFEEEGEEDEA

binding result (GST-Kif7-CC (460-600aa)): no binding (tested: 125 nM)
B1: ZF3-5 (500-604) (other, human, UniProt P10070 500-604, looked up)
Gli2 zinc-finger truncation: EKPHKCTFEGCSKAYSRLENLKTHLRSHTGEKPYVCEHEGCNKAFSNASDRAKHQNRTHSNEKPYICKIPGCTKRYTDPSSLRKHVKTVHGPDAHVTKKQRNDVH
notes: residues 500-604; One of the three truncations of the group m9; also called Gli2-ZF truncation ZF3-5

fold binding to microtubules compared to Kif7-DM (GFP intensity) [1]: ~10 fold
fold decrease in Gli recruitment on microtubules compared to Kif7-DM (Alexa-647 intensity per GFP intensity) (Gli2-ZF-SNAP [2]): 3 fold
B2: Kif7M-Kif27CC chimera (other, human)
chain: MGLEAQRLPGAEEAPVRVALRVRPLLPKELLHGHQSCLQVEPGLGRVTLGRDRHFGFHVVLAEDAGQEAVYQACVQPLLEAFFEGFNATVFAYGQTGSGKTYTMGEASVASLLEDEQGIVPRAMAEAFKLIDENDLLDCLVHVSYLEVYKEEFRDLLEVGTASRDIQLREDERGNVVLCGVKEVDVEGLDEVLSLLEMGNAARHTGATHLNHLSSRSHTVFTVTLEQRGRAPSRLPRPAPGQLLVSKFHFVDLAGSERVLKTGSTGERLKESIQINSSLLALGNVISALGDPQRRGSHIPYRDSKITRILKDSLGGNAKTVMIACVSPSSSDFDETLNTLNYASRAQNIRNRATVNWRPEAERPPEETASGARGPPRHRSETRIIHRGRRAPGPATASAAAAMRLGAECARYRACTDAAYSLLRELQAEPGLPGAAARKVRDWLCAVEGERSALSSASGPDSVLQLKRELKKCQCVLAADEVVFNQKELEVKELKNQVQMMVQENKGHAVSLKEAQKVNRLQNEKIIEQQLLVDQLSEELTKLNLSVTSSAKENCGDG
notes: range 475-570; not shown: HIS tag (used for BLI); GFP tag

stoichiometry of interaction (GST-Kif7-CC-GFP): 0.5 Gli2-ZF molecules per Kif7-CC chain (1:2, one Gli2-ZF monomer per Kif7-CC dimer)
B3: Gli2-ZF-GFP (other, human, UniProt P10070 418-604, looked up)
chain: T3 sequence (looked up)
notes: HRV-cleavable N-terminal 6xHis tag in the vector; not shown: C-terminal GFP tag

fold binding to microtubules compared to Kif7-DM (GFP intensity) [1]: ~3 fold
fold decrease in Gli recruitment on microtubules compared to Kif7-DM (Alexa-647 intensity per GFP intensity) (Gli2-ZF-SNAP [2]): 2 fold
B4: Kif27M-Kif7CC chimera (other, human)
chain: MEEIPVKVAVRIRPLLCKEALHNHQVCVRVIPNSQQVIIGRDRVFTFDFVFGKNSTQDEVYNTCIKPLVLSLIEGYNATVFAYGQTGSGKTYTIGGGHIASVVEGQKGIIPRAIQEIFQSISEHPSIDFNVKVSYIEVYKEDLRDLLELETSMKDLHIREDEKGNTVIVGAKECHVESAGEVMSLLEMGNAARHTGTTQMNEHSSRSHAIFTISICQVHKNMEAAEDGSWYSPRHIVSKFHFVDLAGSERVTKTGNTGERFKESIQINSGLLALGNVISALGDPRRKSSHIPYRDAKITRLLKDSLGGSAKTVMITCVSPSSSNFDESLNSLKYANRARNIRNKPTVNFSPESDRIDEMEFEIKLLREALQSQQAGVSQTTQINREGSPDTNRIHSLEEQVAQLQGECLGYQCCVEEAFTFLVDLKDTVRLNEKQQHKLQEWFNMIQEVRKAVLTSFRGIGGTASLEEGPQHVTVPDSGIESASVEDQAAQGAGGRKEDEGAQQLLTLQNQVARLEEENRDFLAALEDAMEQYKLQSDRLREQQEEMVELRLRLELVRPGWGGPRLLNGLPPGSFVPRPHTAPLGGAHAHVLGMVPPACLPGDEVGSEQRGEQVTN
notes: range 1-475; not shown: HIS tag (used for BLI); GFP tag

fold Gli2-ZF Alexa-647 intensity on microtubules over Gli2 alone (Gli2-ZF-SNAP [2]): ~9 fold
fold increase over background of Gli2 intensity on microtubules (Gli2-ZF-SNAP [3]): 3 fold
B5: Kif7-DM-GFP (1-543aa) (other)
chain: MGLEAQRLPGAEEAPVRVALRVRPLLPKELLHGHQSCLQVEPGLGRVTLGRDRHFGFHVVLAEDAGQEAVYQACVQPLLEAFFEGFNATVFAYGQTGSGKTYTMGEASVASLLEDEQGIVPRAMAEAFKLIDENDLLDCLVHVSYLEVYKEEFRDLLEVGTASRDIQLREDERGNVVLCGVKEVDVEGLDEVLSLLEMGNAARHTGATHLNHLSSRSHTVFTVTLEQRGRAPSRLPRPAPGQLLVSKFHFVDLAGSERVLKTGSTGERLKESIQINSSLLALGNVISALGDPQRRGSHIPYRDSKITRILKDSLGGNAKTVMIACVSPSSSDFDETLNTLNYASRAQNIRNRATVNWRPEAERPPEETASGARGPPRHRSETRIIHRGRRAPGPATASAAAAMRLGAECARYRACTDAAYSLLRELQAEPGLPGAAARKVRDWLCAVEGERSALSSASGPDSGIESASVEDQAAQGAGGRKEDEGAQQLLTLQNQVARLEEENRDFLAALEDAMEQYKLQSDRLREQQEEMVELRLRLELVRP
notes: Dimer; Used in TIRF, size exclusion and BLI (HIS-tagged, anti-penta-HIS sensor); also called GFP-tagged recombinant dimeric Kif7 protein; GFP-tagged Kif7-DM; not shown: TEV-cleavable N-terminal 6xHis tag and SUMOstar tag; His tag on in the BLI assay, state in other a; GFP tag, C-terminal by the name

Kd [4]: 69 nM
B6: GST-Kif7-SCC (481-543aa) (other)
chain: KEDEGAQQLLTLQNQVARLEEENRDFLAALEDAMEQYKLQSDRLREQQEEMVELRLRLELVRP
notes: The limits of the results section are used; also called shorter coiled-coil segment of Kif7-CC; not shown: GST tag, by the name GST-Kif7-SCC

binding result (GST-Kif7-CC (460-600aa)): no binding (tested: 125 nM)
B7: ZF1-2 (418-497) (other, human, UniProt P10070 418-497, looked up)
Gli2 zinc-finger truncation: KEDLDRDDCKQEAEVVIYETNCHWEDCTKEYDTQEQLVHHINNEHIHGEKKEFVCRWQACTREQKPFKAQYMLVVHMRRH
notes: One of the three truncations of the group m9; also called Gli2-ZF truncation ZF1-2

binding result (GST-Kif7-CC (460-600aa)): no binding (tested: 125 nM)
B8: ZF4-5 (530-604) (other, human, UniProt P10070 530-604, looked up)
Gli2 zinc-finger truncation: EKPYVCEHEGCNKAFSNASDRAKHQNRTHSNEKPYICKIPGCTKRYTDPSSLRKHVKTVHGPDAHVTKKQRNDVH
notes: residues 530-604; One of the three truncations of the group m9; also called Gli2-ZF truncation ZF4-5
